{"source": "paper PMC9541495", "about": "“Understanding the interaction of 14‐3‐3 proteins with hDMX and hDM2: a structural and biophysical study” (The Febs Journal, 2022)", "binders": {"B1": {"name": "FAM‐Ahx‐hDMX_(335‐349) ^pSer342 (peptide)", "peptide": "{FAM-Ahx}-SKLTHSL[pS]TSDITAI-NH2", "notes": "hDMX (human double minute 4 protein, hDM4), human, residues 335-349; Tracer form used in the FA assays; source: synthetic peptide (Fmoc SPPS, HPLC purified)"}, "B2": {"name": "FAM‐Ahx‐hDMX_(361‐374) ^pSer367 (peptide)", "peptide": "{FAM-Ahx}-DCRRTI[pS]APVVRPK-NH2", "notes": "Tracer form used in the FA assays; source: synthetic peptide (Fmoc SPPS, HPLC purified)"}, "B3": {"name": "FAM‐Ahx‐hDM2_(160‐171) ^pSer166 (peptide)", "peptide": "{FAM-Ahx}-SRRRAI[pS]ETEEN-NH2", "notes": "hDM2 (human double minute 2 protein), human, residues 160-171; Tracer form used in the FA assays; also called hDM2_(160‐171) ^Ser166; source: synthetic peptide (Fmoc SPPS, HPLC purified)"}, "B4": {"name": "FAM‐Ahx‐hDM2_(180‐192) ^pSer186 (peptide)", "peptide": "{FAM-Ahx}-QRKRHK[pS]DSISLS-NH2", "notes": "hDM2 (human double minute 2 protein), human, residues 180-192; Tracer form used in the FA assays; source: synthetic peptide (Fmoc SPPS, HPLC purified)"}}, "experiment_in_all_cases": "fluorescence polarisation; fluorescence anisotropy, direct titration: 14-3-3 protein titrated (1/2 dilution series) against 50 nM FAM-Ahx tracer peptide; 10 mM HEPES, 150 mM NaCl, 0.1% Tween 20, 0.1% BSA, pH 7.4; 384 well plates, triplicates; protein concentration as 14-3-3 monomer; 1:1 fit, biphasic curves fitted as two separate 1:1 events (Kd1, Kd2)", "settings_in_all_cases": "both partners purified", "key": {"14‐3‐3ζ": {"target": "T1, 14‐3‐3ζ (human, UniProt P63104 1-245)", "T1 construct": "14-3-3 zeta, human, full-length protein from the pProEx HTb-His-14-3-3 construct; Written as the protomer; tag removal is told only for the ∆C proteins; source: E. coli BL21(DE3), purified (Ni2+-NTA, dialysis)", "T1 sequence (looked up)": "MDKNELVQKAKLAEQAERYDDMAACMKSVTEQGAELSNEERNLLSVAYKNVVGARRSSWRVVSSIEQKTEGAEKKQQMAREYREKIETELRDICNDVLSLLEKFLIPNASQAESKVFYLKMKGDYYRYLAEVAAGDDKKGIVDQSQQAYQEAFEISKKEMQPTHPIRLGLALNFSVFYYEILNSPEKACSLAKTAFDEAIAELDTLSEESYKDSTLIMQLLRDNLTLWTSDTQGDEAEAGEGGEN"}, "14‐3‐3τ": {"target": "T2, 14‐3‐3τ (human, UniProt P27348 1-245)", "T2 construct": "14-3-3 tau/theta, human, full-length protein from the pProEx HTb-His-14-3-3 construct; Written as the protomer; tag removal is told only for the ∆C proteins; also called τ/θ; source: E. coli BL21(DE3), purified (Ni2+-NTA, dialysis)", "T2 sequence (looked up)": "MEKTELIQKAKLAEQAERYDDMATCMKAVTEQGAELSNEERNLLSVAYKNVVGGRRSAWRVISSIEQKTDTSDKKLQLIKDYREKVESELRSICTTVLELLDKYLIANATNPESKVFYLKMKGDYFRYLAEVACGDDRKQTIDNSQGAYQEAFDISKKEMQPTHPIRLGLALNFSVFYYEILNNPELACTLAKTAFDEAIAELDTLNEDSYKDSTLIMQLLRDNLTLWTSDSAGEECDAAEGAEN"}, "14‐3‐3η": {"target": "T3, 14‐3‐3η (human, UniProt Q04917 1-246)", "T3 construct": "14-3-3 eta, human, full-length protein from the pProEx HTb-His-14-3-3 construct; Captured on an NTA chip in SPR; source: E. coli BL21(DE3), purified (Ni2+-NTA, dialysis)", "T3 sequence (looked up)": "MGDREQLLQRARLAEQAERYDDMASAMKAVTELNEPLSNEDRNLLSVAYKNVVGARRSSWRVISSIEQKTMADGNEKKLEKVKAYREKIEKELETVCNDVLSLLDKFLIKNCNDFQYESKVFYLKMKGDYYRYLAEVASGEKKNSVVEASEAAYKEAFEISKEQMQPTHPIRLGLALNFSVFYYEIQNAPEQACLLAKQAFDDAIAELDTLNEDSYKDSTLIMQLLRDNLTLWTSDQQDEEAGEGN"}, "14‐3‐3ε": {"target": "T4, 14‐3‐3ε (human, UniProt P62258 1-255)", "T4 construct": "14-3-3 epsilon, human, full-length protein from the pProEx HTb-His-14-3-3 construct; Written as the protomer; tag removal is told only for the ∆C proteins; source: E. coli BL21(DE3), purified (Ni2+-NTA, dialysis)", "T4 sequence (looked up)": "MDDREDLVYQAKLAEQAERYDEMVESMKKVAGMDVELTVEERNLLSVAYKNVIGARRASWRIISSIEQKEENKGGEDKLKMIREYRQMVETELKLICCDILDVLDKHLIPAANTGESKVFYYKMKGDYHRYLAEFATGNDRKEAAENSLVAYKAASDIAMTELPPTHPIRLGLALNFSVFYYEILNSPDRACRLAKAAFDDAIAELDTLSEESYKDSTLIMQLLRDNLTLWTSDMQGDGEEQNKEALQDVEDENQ"}, "14‐3‐3σ": {"target": "T5, 14‐3‐3σ (human, UniProt P31947 1-248)", "T5 construct": "14-3-3 sigma, human, full-length protein from the pProEx HTb-His-14-3-3 construct (used in the FA assays); Written as the protomer; tag removal is told only for the ∆C proteins; source: E. coli BL21(DE3), purified (Ni2+-NTA, dialysis)", "T5 sequence (looked up)": "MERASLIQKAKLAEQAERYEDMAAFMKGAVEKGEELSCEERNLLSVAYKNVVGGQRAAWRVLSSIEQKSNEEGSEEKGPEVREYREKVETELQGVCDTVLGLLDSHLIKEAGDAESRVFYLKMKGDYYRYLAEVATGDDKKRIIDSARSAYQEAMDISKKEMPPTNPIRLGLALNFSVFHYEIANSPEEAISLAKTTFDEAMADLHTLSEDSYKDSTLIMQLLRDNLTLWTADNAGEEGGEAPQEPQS"}}, "note": "[ ]: non-standard residue; d: D form. pS = N[C@@H](COP(=O)(O)O)C(=O)O; FAM = 5,6-carboxyfluorescein; Ahx = NCCCCCC(=O)O"}
{"binder": "B1", "values": [{"measurement": "Kd", "setting": "14‐3‐3ζ", "result": "95.8 ± 3.6", "unit": "µM"}, {"measurement": "Kd", "setting": "14‐3‐3τ", "result": "108 ± 6", "unit": "µM"}, {"measurement": "Kd", "setting": "14‐3‐3η", "result": "20 ± 1.2", "unit": "µM"}, {"measurement": "Kd", "setting": "14‐3‐3ε", "result": "53.4 ± 2.9", "unit": "µM"}, {"measurement": "Kd", "setting": "14‐3‐3σ", "result": "136 ± 3.6", "unit": "µM"}]}
{"binder": "B2", "values": [{"measurement": "Kd", "setting": "14‐3‐3ζ", "result": "0.92 ± 0.03", "unit": "µM"}, {"measurement": "Kd", "setting": "14‐3‐3τ", "result": "1.2 ± 0.2", "unit": "µM"}, {"measurement": "Kd", "setting": "14‐3‐3η", "result": "0.099 ± 0.005", "unit": "µM"}, {"measurement": "Kd", "setting": "14‐3‐3ε", "result": "2.7 ± 0.2", "unit": "µM"}, {"measurement": "Kd", "setting": "14‐3‐3σ", "result": "3.6 ± 0.4", "unit": "µM"}]}
{"binder": "B3", "values": [{"measurement": "Kd", "setting": "14‐3‐3ζ", "result": "19.6 ± 0.2", "unit": "µM"}, {"measurement": "Kd", "setting": "14‐3‐3τ", "result": "29.3 ± 2.4", "unit": "µM"}, {"measurement": "Kd", "setting": "14‐3‐3η", "result": "10.2 ± 0.3", "unit": "µM"}, {"measurement": "Kd", "setting": "14‐3‐3ε", "result": "23 ± 1.2", "unit": "µM"}, {"measurement": "Kd", "setting": "14‐3‐3σ", "result": "32.7 ± 1.4", "unit": "µM"}]}
{"binder": "B4", "values": [{"measurement": "Kd", "setting": "14‐3‐3ζ", "result": "166 ± 5.6", "unit": "µM"}, {"measurement": "Kd", "setting": "14‐3‐3τ", "result": "> 250", "unit": "µM"}, {"measurement": "Kd", "setting": "14‐3‐3η", "result": "31.6 ± 1.9", "unit": "µM"}, {"measurement": "Kd", "setting": "14‐3‐3ε", "result": "> 260", "unit": "µM"}, {"measurement": "Kd", "setting": "14‐3‐3σ", "result": "> 170", "unit": "µM"}]}
